As a reminder, the Kd is the free concentration of one partner at which half of the binding sites on the other are occupied at equilibrium, for simple one-to-one binding. What is called koff is the rate constant with which the complex falls apart.

Consider one molecule from publication PMC8072984, “Engineering of Saposin C Protein Chimeras for Enhanced Cytotoxicity and Optimized Liposome Binding Capability” (Pharmaceutics, 2021).

The assay concerns the target T1, Human Bcl-xL-ΔTM (native amino acid sequence without the transmembrane domain) (human).
T1 construct: ~24.5 kDa; Unlabeled in the NMR titration; source: cloned into pET21a; not shown: His6, N-terminal, kept
Briefly: NMR titration; [1H-15N]-SOFAST-HMQC at 298 K, 600 MHz; 15N-labelled chimera at 100 µM mixed with unlabeled Bcl-xL-ΔTM (stock 900 µM, pH 6.8) at chimera:Bcl-xL molar ratios 1:0, 1:0.5, 1:1, 1:2; 10% D2O; slow exchange, the upper limit of KD estimated from the chemical shift difference assuming diffusion-controlled kon. The note with it: both partners purified.

A value given as a limit tells only on which side of the number the result lay.

B1: sapC-PUMA chimera (saposin C linked to the BH3 domain of PUMA) (other)
chain: SDVYCEVCEFLVKEVTKLIDNNKTEKEILDAFDKMCSKLPKSLSEECQEVVDTYGSSILSILLEEVSPELVCSMLHLCSGGGGEEQWAREIGAQLRRMADDLNAQYER
modifications: Three disulfide bonds in the sapC part. Chimera numbering of sapC + 307 = P07602 numbering (S4-G83 = 311-390). Vector residues 1-3 (letters only in Figure 2) and the C-terminal thrombin-site remnant …
Consider B1, for which the Kd was below 49 nM and the koff is below 49 s⁻¹.
